Assay results reported in PMC8769934 (Cell Reports, 2022).

Assays:
dissociated S1 protomer = dissociated S1 protomer (SARS-CoV-2, Wuhan-Hu-1, stabilised); test: cryo-EM structure
[1] = molecular target: recombinant S1 domain containing B.1.1.7 mutations (SARS-CoV-2 B.1.1.7 (Alpha), strain); test: BLI

| Binder | binding result (dissociated S1 protomer) | fold reduction of binding affinity against S1 [1] [fold] |
| --- | --- | --- |
| N-612-004 Fab (Fab, V domains shown) VH: EVQLVESGGGLVQPGGSLRLSCAASGFTFSSYYMHWVRQAPGKGLEWVSAISGSGGYTYYADSVKGRFTISRDNSKNTLYLQMNSLRAEDTAVYYCARDRDHAYDWGFDVWGQGTLVTVSS VL: DIQMTQSPSSLSASVGDRVTITCQASQDISNYLNWYQQKPGKAPKLLIYDASNLETGVPSRFSGSGSGTDFTFTISSLQPEDIATYYCQQWADWPLTFGQGTKVEIK | binds |  |
| N-612-004 (IgG1) (antibody, V domains shown) VH: EVQLVESGGGLVQPGGSLRLSCAASGFTFSSYYMHWVRQAPGKGLEWVSAISGSGGYTYYADSVKGRFTISRDNSKNTLYLQMNSLRAEDTAVYYCARDRDHAYDWGFDVWGQGTLVTVSS VL: DIQMTQSPSSLSASVGDRVTITCQASQDISNYLNWYQQKPGKAPKLLIYDASNLETGVPSRFSGSGSGTDFTFTISSLQPEDIATYYCQQWADWPLTFGQGTKVEIK |  | ~3 |
